# T1: soluble HCV E2 ectodomain (sE2) (hepatitis C virus)
# T1 chain: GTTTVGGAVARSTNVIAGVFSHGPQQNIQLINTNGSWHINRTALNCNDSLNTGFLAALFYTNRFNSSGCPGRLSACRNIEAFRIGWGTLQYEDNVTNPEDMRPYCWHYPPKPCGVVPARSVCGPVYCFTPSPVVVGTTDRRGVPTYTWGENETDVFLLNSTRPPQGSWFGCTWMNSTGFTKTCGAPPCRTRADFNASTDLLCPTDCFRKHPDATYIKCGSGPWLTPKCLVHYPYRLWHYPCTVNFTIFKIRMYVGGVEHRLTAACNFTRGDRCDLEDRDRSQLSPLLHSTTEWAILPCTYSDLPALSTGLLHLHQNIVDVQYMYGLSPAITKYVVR
# B1: Fab fragment of neutralizing antibody HCV1 (Fab, V domains shown)
# VH: EVQLLESGGGVVQPGRSLRLSCTASGFTFNNYGMHWVRQTPGKGLEWLAVIWFDENNKYYADSVRGRFTISRDNSKNTLFLQMNSLKTEDTAMYYCARDISLVRDAFIYFDFWGLGTLVTVSS
# VL: ELTLTQSPATLSLSPGERATLSCRASQSVSSYLAWYQQKPGQAPRLLIYDASNRATGIPARFSGSGSGTDFTLTISSLEPEDFAVYYCQQRSNWITFGQGTRLEIK
# Biological target: T1, soluble HCV E2 ectodomain (sE2)
binder,measurement,value
B1,Kd,294 nM

# From PMC11623273 (2024)
